Series [1] can be described thus: Fenpropathrin degradation, HPLC. It is filed as biochemical. The settings on record: 20 ppm fenpropathrin; 15 minutes at 37 C with shaking. As for the experimental part:
1000 ppm fenpropathrin was diluted to 5 point curve which was able to detect on HPLC the gradient of 20% water and 80% using the instrument method described above for permethrin. 20 ppm of […] was placed in […] with 10 μL […] and reacted for 15 minutes at 37 C with shaking. HPLC was run on the sample after being diluted 1:1 MeOH using instrument method described above for permethrin. A 90% degradation of fenpropathrin was detected with PytH2.

A short description of series [2]: Serum analysis: cat serum plus permethrin +/- E3, HPLC. It is filed as biochemical. The settings on record: for % permethrin control: relative to no enzyme. As for the experimental part: The next step was to test the enzymatic hydrolysis of permethrin in feline blood (cat serum). Cat serum was acquired, permethrin was added to the serum and was assayed as a control by HPLC. After the cat serum control was analyzed three different concentrations of the enzyme were introduced to the cat serum control and then analyzed by HPLC.
Cat serum was acquired, permethrin was added to the serum and was assayed as a control by HPLC. After the cat serum control was analyzed three different concentrations of the enzyme were introduced to the cat serum control and then analyzed by HPLC.

Series [3] in a line: Biological permethrin assay for esterase activity (activity units of esterases). It is filed as biochemical. The settings on record: esterases used in reaction mix for scud assay. The method, then:
A biological permethrin assay was performed for control, and three esterases pnbA, pytH2 and MsE1. The sensitivity of scuds (Hyalella Azteca) to permethrin was tested with three esterases pnbA, pytH2 and MsE1.
For control and each of the three esterases pnbA, pytH2 and MsE1, ten scuds were exposed to permethrin and one of pnbA, pytH2 or MsE1.
• 100 μL 50% MeOH in PBS • 0.2 μg/μL
(§1) • 37 degree C. • 18 hr • Shanking 1000 rpm Transferred 20 μL rxn mix [4 μg] to 100 mL [containing 10 scuds] At time, 24 h and 48 h the ten scuds were scored: A=Alive and Moving actively BA=Barely Alive—Difficulty swimming away; only legs are moving D=Dead—Not moving at all The results of which are shown in FIGS. 8 and 9.

The next series relates to scuds (Hyalella azteca). Nature of the series: Scud bioassay: scuds exposed to permethrin with or without enzyme, kill counts. It is filed as in vivo. The settings on record: scuds exposed to permethrin plus degrading enzyme versus permethrin alone. As for the experimental part: A standard of permethrin (CAS Number […]) was prepared and analyzed by HPLC as a control, then different concentrations of enzymatic solution were added to the standard to find an effective concentration (of pPytH2) needed to degrade the permethrin. After degradation was confirmed through HPLC analysis by the qualification and quantitation of permethrin hydrolysis byproducts, a bioassay was performed with crustaceans (scuds), who are also highly sensitive to pyrethroid toxicity. In the bioassay, scuds were exposed to two different environments. Permethrin was added to the first environment to get a scud kill count without the presence of the enzyme as a control and the next environment was evaluated by adding both permethrin and the degrading enzyme to the scud environment and kill counts were compared.
The next step was to test the enzymatic hydrolysis of permethrin in feline blood (cat serum). […] After the cat serum control was analyzed three different concentrations of the enzyme were introduced to the cat serum control and then analyzed by HPLC. […]
as §1

Series [4] in a line: Deltamethrin degradation, HPLC. The format is biochemical. The settings on record: method as for permethrin; FIG. 5. The source says: Using the method and instruments described above for permethrin, 40% of deltamethrin was degraded by pPytH2, PytH2 esterase as shown in FIG. 5.
Series [5] in a line: Order of pyrethroid hydrolysis efficiency of PytH2. The format is biochemical. The settings on record: pyrethroid substrates. The source says:
Activity of the enzyme: In order of hydrolysis efficiency: transpermethrin>cis-permethrin>fenpropathrin>trans-cypermethrin>cis-cypermethrin>cyhalothrin>fenvalerate>deltamethrin>bifenthrin.

Series [6] is described as follows: Cypermethrin degradation, HPLC. The settings on record: 50 ppm cypermethrin in 1 mL PBS with 10 μL pPytH2; 15 minutes at 37 C, 300 rpm. It is filed as biochemical. As for the experimental part: 50 ppm of cypermethrin was placed in 1 mL PBS with 10 μL pPytH2, PytH2 and reacted for 15 minutes at 37 C with shaking at 300 rpm. HPLC was run on the sample after being diluted 1:1 MeOH using instrument method described above for permethrin for 10 minutes.

B1: E3: carboxylesterase PytH2 (pytH) from Sphingobium wenxiniae, amino acid SEQ. ID No. 3, DNA SEQ. ID No. 6; recombinant, His-tagged (protein, listed as Sphingobium wenxiniae)
chain: MTVTDIILIHGALNRGACYDAVVPLLEARGYRVHAPDLTGHTPGDGGHLSVVDMEHYTRPVADILARAEGQSILLGHSLGGASISWLAQHHYDKVAGLIYLTAVLTAPGITPETFVLPGEPNRGTPHALDLIQPVDEGRGLQADFSRLERLREVFMGDYPGEGMPPAEQFIQTQSTVPFGTPNPMEGRALEIPRLYEALDDVVIPIAVQRQMQKEFPGPVAVVSLPASHAPYYSMPERLAEAIADFADAPAEYRQTATKAGPDRPAGADGGRADRADLP
modifications: His tag
notes: ID No. 6; recombinant, His-tagged
In series [1], B1 returned a degradation of fenpropathrin of 90%. Further, in series [2] (2.5 μL E3, 15 min 37 degree C.), the “Cis-permethrin (HPLC area)” value turned out to be 1624.5, the “Total permethrin (area)” value turned out to be 1624.5 area, the “Total permethrin (expected 2 ppm)” value came out at 0.098 ppm and the “Trans-permethrin (HPLC area)” value turned out to be 0. Moreover, the “% permethrin control” value in series [2] (2.5 μL E3, 15 min 37 degree C.) came to 7.0%. In series [2] (10 μL E3, 15 min 37 degree C.), the “Cis-permethrin (HPLC area)” value turned out to be 0, the “Total permethrin (area)” value is 0 area, the “Total permethrin (expected 2 ppm)” value is recorded as 0.000 ppm and the “Trans-permethrin (HPLC area)” value was found to be 0. Besides, the “% permethrin control” value in series [2] (10 μL E3, 15 min 37 degree C.) worked out at 0.0%. Further, the “% permethrin control” value in series [2] (10 μL E3, 15 min 37 degree C., listed as PytH2) amounted to 0.0%. In series [2] (30 μL E3, 15 min 37 degree C.), the “Cis-permethrin (HPLC area)” value is on record as 0, the “Total permethrin (area)” value is reported as 0 area, the “Total permethrin (expected 2 ppm)” value is recorded as 0.000 ppm and the “Trans-permethrin (HPLC area)” value worked out at 0. For the same molecule, the “% permethrin control” value in series [2] (30 μL E3, 15 min 37 degree C.) is reported as 0.0%. In series [3], this molecule showed an Activity units of 31.6. Moreover, the “effect on permethrin in scud bioassay” value in the series with scuds (Hyalella azteca) was “hydrolyzed the toxic permethrin molecule and degraded permethrin”. Besides, in series [4], the deltamethrin degraded worked out at 40%. For the same molecule, the “order of hydrolysis efficiency” value in series [5] was “transpermethrin>cis-permethrin>fenpropathrin>trans-cypermethrin>cis-cypermethrin>cyhalothrin>fenvalerate>deltamethrin>bifenthrin”. In addition, the Cypermethrin degradation rate in series [6] amounted to 12.69 nmol/min/μg pPytH2.

Values taken from patent publication US20220047684A1, “ENZYMES AND METHODS FOR PREVENTING AND TREATING […] IN ANIMALS” (Ecto Development Corporation, priority 2020, published 2022).
